The values that follow come from the supplement of paper PMC12042874.

± gives the uncertainty stated by the source.

The data set is described as follows: amyloid nucleation score (Sup35N fusion, yeast selection) (log enrichment); library NNK3; higher = more nucleation; inactive = no reads after selection. The method, boiled down:
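Sup35N was fused to peptides of 20 random codons and expressed in psi-negative yeast, which were induced with 100 μM copper sulfate for 24 hours and then grown on medium lacking adenine and uracil for 7 days at 30°C. Plasmid inserts from input and output were sequenced on Illumina. The nucleation score is the DiMSum log enrichment of output over input reads, centred on the mode score of non-aggregating sequences. Sequences with under 100 input reads were left out, and random libraries had three technical output replicates.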
In the case of LILYSLGNNTHEMIYLWSNR, the amyloid nucleation score result is “inactive”. In the case of LEREDGVHWLMEEWVWCVDW, the amyloid nucleation score entry is “inactive”. Consider GSVGILHFGKYHSIVYSACN, for which the amyloid nucleation score entry is “inactive”. Next, GIMSCQ: 0.021 ± 0.88; CVGHVRSYYGMQIPKGLKLS: “inactive”; TSMSGYRTRNPMTVPHHCVV: “inactive”.

As for TLDHEWGFLSEKATVL, the amyloid nucleation score result is “inactive”. In the case of VQWCPNVYTDSQVCRYVSSR, the amyloid nucleation score result was “inactive”. Consider FFAECCRGNKCYMRSKDDQS, for which the amyloid nucleation score result was “inactive”.

Consider TTTRIAMYWYEYMSGCASHY, for which the amyloid nucleation score result was “inactive”. For SHVHLDSSRKRHIDLTNALR, the amyloid nucleation score entry is “inactive”. With MVCLDWVPSNVMTLGS, the amyloid nucleation score entry is “inactive”.

GANFVCSVECRLVRRNSRYD: the amyloid nucleation score came out at 0.511 ± 0.21. In the case of RGYGAAHQRRCQRIRNYYKY, the amyloid nucleation score result was “inactive”. As for RMMCARIFRVSWLSSCLEGG, the amyloid nucleation score result is “inactive”. Consider KDRHVSYFGLYKLGWRYTPS, for which the amyloid nucleation score result is “inactive”.

Take SIIGASLLNYF: the amyloid nucleation score entry is “inactive”.

In the case of QANFYPN, the amyloid nucleation score result is “inactive”. Next, TTDCIESVRDG: -0.659 ± 1.4; QSYVFVVLTPWVSRCGIGLA: “inactive”; CASPSGFSSQGVTWFVEV: “inactive”. As to TSQYRPERKLRVR, the amyloid nucleation score entry is “inactive”. As for VLTVYDCGLEQPW, the amyloid nucleation score entry is “inactive”. For PMVKPSNLCYSSHCSMGTRG, the amyloid nucleation score result is “inactive”.

Consider KISFWVRERFNYRCTIGIEC, for which the amyloid nucleation score entry is “inactive”. VRTRMEPRG: the amyloid nucleation score result is “inactive”. For NNVTSIN, the amyloid nucleation score is -0.821 ± 1.1. Next, KLEREMADNDVARGGQLVLG: “inactive”; SIFFNVVLFWGVWELTQGNR: 0.803 ± 0.27. Next, HVGCLIYDIQCETPGSHPSR: “inactive”; FSFCIGRMCDLQALTASCLN: “inactive”. Consider IMKRFVMFLCFSISIWMFVV, for which the amyloid nucleation score entry was “inactive”. Consider MWCMGNSVGSVWSRCTYMRY, for which the amyloid nucleation score entry was “inactive”.

Regarding CLSLKNERHQVFMSRIGNRA, the amyloid nucleation score entry is “inactive”. The substance LAGIMCCEKVYCGPRDGVLG yielded an amyloid nucleation score of 1.69 ± 0.12. On to FFARDVRSN, for which the amyloid nucleation score entry is “inactive”. Next, FKAPWLSGP: “inactive”.

For QTSMVVDDYCILYVLHWGWG, the amyloid nucleation score result was “inactive”. As for VGIRWYGFDTCRRKFGTWNI, the amyloid nucleation score result was “inactive”. For the substance HWGTMNGSPSFFPITVRCGG, the amyloid nucleation score entry was “inactive”.

PESFKGTQCVKFFYNCLLFK: the amyloid nucleation score was found to be 1.2 ± 0.086. Turning to CLPVARGQMR, the amyloid nucleation score entry was “inactive”. Consider STDWDFHMRTFPGHVTKCWK, for which the amyloid nucleation score entry was “inactive”. In the case of CYVLVMKIPSHFKGTFMWHI, the amyloid nucleation score result is “inactive”. As to HRIRVVENLPHCVLSSRMPL, the amyloid nucleation score result was “inactive”. For the substance TFCSTCGDLWGSDFKCGFRV, the amyloid nucleation score entry was “inactive”.

As to VGRSNH, the amyloid nucleation score result is “inactive”. Take VRPLVDYMMQNM: the amyloid nucleation score entry is “inactive”. Turning to NLMCVNTVGLKYGPRELSNH, the amyloid nucleation score entry is “inactive”. On to QCEAGSGIIAVLHY, for which the amyloid nucleation score entry was “inactive”. In turn, NFMPNKYCNVELVFWGDLGI returned an amyloid nucleation score of 1.59 ± 0.12. Take RSILLEGVLAFM: the amyloid nucleation score result was “inactive”.

For RGNDLIVCCGDRMCFCNALS, the amyloid nucleation score entry was “inactive”.

For the substance NIPPLTLLAVVGS, the amyloid nucleation score result was “inactive”.

For the substance ARSDGA, the amyloid nucleation score result was “inactive”. For SSKARSQSCVLRMMIPDRQW, the amyloid nucleation score entry was “inactive”.

Regarding WCFYKSLIACGHIVGIEPDW, the amyloid nucleation score worked out at 0.848 ± 0.15. In the case of GYKIW it was “inactive”.

Take SWKGGLQTDDGSKGS: the amyloid nucleation score result is “inactive”. Consider DEIPCDVRGLMPTRVSTLNL, for which the amyloid nucleation score entry was “inactive”.

LASQELLFVRIRDSLAKCGV: the amyloid nucleation score result was “inactive”. In the case of LLCVDSTKTMIAYD it was “inactive”; in that of GNLASICVRLCWLCARLWST, “inactive”. Regarding DLFKTVPYRWGFRYHIGIYM, the amyloid nucleation score result is “inactive”.

For the substance TQRRFMYMAFNQYMSQSSSR, the amyloid nucleation score result was “inactive”.

YVYGKNGARGDSIREMGPSE: the amyloid nucleation score entry was “inactive”. With AIVFGGNAQKSHTHDTGAMG, the amyloid nucleation score result is “inactive”. With GCVLCGIPSAWRSPGASSDA, the amyloid nucleation score is 1.05 ± 0.2. Consider ILCQIDAKDPKPLMTRGLRL, for which the amyloid nucleation score entry was “inactive”. Consider RHWDVLK, for which the amyloid nucleation score entry is “inactive”. With YQNIDYMKGYKVISKD, the amyloid nucleation score result is “inactive”.

Substance TMYVCWSMFEAIWDINHNTS registered an amyloid nucleation score of -0.26 ± 0.64. On to EKQKSLFCVLMVGLFYVNV, for which the amyloid nucleation score result is “inactive”.

For the substance VPMFSSLCPYTISLFQGTSP, the amyloid nucleation score result is “inactive”.

IIVRSTDGLSCRSDSIYECD: the amyloid nucleation score result is “inactive”. Turning to STCLTD, the amyloid nucleation score entry was “inactive”.

Regarding RNQFWTWYGVSMLSNRQHGK, the amyloid nucleation score result is “inactive”. Next, MMADDVSLICGCGRQ: 1.01 ± 0.19; IMEIMVNTWGNVTVRNSWRL: 1.23 ± 0.14. In the case of LYGTFVNSCQRFNLLDV it was “inactive”; in that of MCYVVNAHGVASQ, “inactive”. For the substance WAHLGLDNMYKVLCSRGANA, the amyloid nucleation score result was “inactive”.

On to NCDIPFFTRSEIVFLFVDFI, for which the amyloid nucleation score entry is “inactive”. With PTRNYCLLVKDY, the amyloid nucleation score entry was “inactive”. With MHLVYQDILSYIAWSRVPLR, the amyloid nucleation score entry was “inactive”. As for LFPLMKQYLARGFSQDIRSA, the amyloid nucleation score entry is “inactive”. In the case of FGFYSCTLGG it was “inactive”; in that of SAYSVHLSSVHFELVVET, “inactive”; in that of LVYLSASFVW, 0.108 ± 0.67.

Consider NLGKTLNTLYLVFTFRDVF, for which the amyloid nucleation score result was “inactive”. Turning to SEFCSNFNQFGC, the amyloid nucleation score entry is “inactive”. In the case of HTILENFSSLVVMRDGRRNG it was -0.275 ± 0.52; in that of VWVHA, “inactive”; in that of VFASQ, 1.3 ± 0.13.

With ETQWFEI, the amyloid nucleation score entry is “inactive”. Next, AIYAHYYRTWVFWYYMVPGC: “inactive”.

Turning to IREFSNI, the amyloid nucleation score entry was “inactive”.
